Where two headings read alike, the source gives them in different places.
T1: CD25 (recombinant) (human, UniProt P01589 22-213, limits assumed)
T1 construct: bought protein; also called IL2-R alpha; IL2-Rα
T1 sequence (looked up): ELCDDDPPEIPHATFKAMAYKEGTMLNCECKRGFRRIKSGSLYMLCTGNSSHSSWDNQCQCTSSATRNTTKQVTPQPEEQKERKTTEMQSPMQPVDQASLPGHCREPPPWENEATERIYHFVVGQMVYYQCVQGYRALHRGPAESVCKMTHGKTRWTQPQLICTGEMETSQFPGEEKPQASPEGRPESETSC


Tests used:
CD25 (recombinant) = target: T1, CD25 (recombinant); assay: SPR (BIAcore)
cynomolgous monkey CD25 [1] = target: T2, cynomolgous monkey CD25 (cynomolgous monkey); assay: SPR (BIAcore), cynomolgous CD25
T2 construct: also called cmCD25; cm

cynomolgous monkey CD25 [2] = target: T2, cynomolgous monkey CD25; assay: SPR (BIAcore), cynomolgous CD25; remark: listed apart in the source

| Binder | Kd (CD25 (recombinant)) [nM] | Kd (cynomolgous monkey CD25 [1]) [nM] | Kd (cynomolgous monkey CD25 [2]) [nM] |
| --- | --- | --- | --- |
| daclizumab variant S77 (antibody, IgG1, name in Kabat numbering, V domains shown, IgG1; Kabat positions; also called I48M; DAC I48M) VH: QVQLVQSGAEVKKPGSSVKVSCKASGYTFTSYRMHWVRQAPGQGLEWMGYINPSTGYTEYNQKFKDKATITADESTNTAYMELSSLRSEDTAVYYCARGGGVFDYWGQGTLVTVSS VL: DIQMTQSPSTLSASVGDRVTITCSASSSISYMHWYQQKPGKAPKLLIYTTSNLASGVPARFSGSGSGTEFTLTISSLQPDDFATYYCHQRSTYPLTFGQGTKVEVK | 0.478 |  |  |
| Variant C52 (antibody, V domains shown) VH: QVQLVQSGAEVKKPGSSVKVSCKASGYTFTSYRMHWVRQAPGQGLEWMGYIKPNSGYTEYNQKFKDKATITADESTNTAYMELSSLRSEDTAVYYCARGGGVFDYWGQGTLVTVSS VL: DIQMTQSPSTLSASVGDRVTITCSASSKISYMHWYQQKPGKAPKLLIYTTSDLASGVPARFSGSGSGTEFTLTISSLQPDDFATYYCHQRSTYPLTFGQGTKVEVK |  | 0.075 | 0.075 |
| Variant C47 (antibody, V domains shown) VH: QVQLVQSGAEVKKPGSSVKVSCKASGYTFTSYRMHWVRQAPGQGLEWMGYIRPKKGYTEYNQKFKDKATITADESTNTAYMELSSLRSEDTAVYYCARGGGVFDYWGQGTLVTVSS VL: DIQMTQSPSTLSASVGDRVTITCSASSKISYMHWYQQKPGKAPKLLIYTTSDLASGVPARFSGSGSGTEFTLTISSLQPDDFATYYCHQRSTYPLTFGQGTKVEVK |  | 0.1 | 0.1 |
| Variant C57 (antibody, V domains shown) VH: QVQLVQSGAEVKKPGSSVKVSCKASGYTFTSYRMHWVRQAPGQGLEWMGYIKPKSGRTEYNQKFKDKATITADESTNTAYMELSSLRSEDTAVYYCARGGGVFDYWGQGTLVTVSS VL: DIQMTQSPSTLSASVGDRVTITCSASSKISYMHWYQQKPGKAPKLLIYTTSDLASGVPARFSGSGSGTEFTLTISSLQPDDFATYYCHQRSTYPLTFGQGTKVEVK |  | 0.078 | 0.078 |
| Variant C54 (antibody, V domains shown) VH: QVQLVQSGAEVKKPGSSVKVSCKASGYTFTSYRMHWVRQAPGQGLEWMGYISPRSGRTEYNQKFKDKATITADESTNTAYMELSSLRSEDTAVYYCARGGGVFDYWGQGTLVTVSS VL: DIQMTQSPSTLSASVGDRVTITCSASSKISYMHWYQQKPGKAPKLLIYTTSDLASGVPARFSGSGSGTEFTLTISSLQPDDFATYYCHQRSTYPLTFGQGTKVEVK |  | 0.055 | 0.055 |
| Variant C51 (antibody, V domains shown) VH: QVQLVQSGAEVKKPGSSVKVSCKASGYTFTSYRMHWVRQAPGQGLEWMGYIKPNKGYTEYNQKFKDKATITADESTNTAYMELSSLRSEDTAVYYCARGGGVFDYWGQGTLVTVSS VL: DIQMTQSPSTLSASVGDRVTITCSASSKISYMHWYQQKPGKAPKLLIYTTSDLASGVPARFSGSGSGTEFTLTISSLQPDDFATYYCHQRSTYPLTFGQGTKVEVK |  | 0.093 | 0.093 |
| Variant C63 (antibody, V domains shown) VH: QVQLVQSGAEVKKPGSSVKVSCKASGYTFTSYRMHWVRQAPGQGLEWMGYIKPNSGRTEYNQKFKDKATITADESTNTAYMELSSLRSEDTAVYYCARGGGVFDYWGQGTLVTVSS VL: DIQMTQSPSTLSASVGDRVTITCSASSKISYMHWYQQKPGKAPKLLIYTTSDLASGVPARFSGSGSGTEFTLTISSLQPDDFATYYCHQRSTYPLTFGQGTKVEVK |  | 0.063 | 0.063 |
| Variant C59 (antibody, V domains shown) VH: QVQLVQSGAEVKKPGSSVKVSCKASGYTFTSYRMHWVRQAPGQGLEWMGYIRPKSGRTEYNQKFKDKATITADESTNTAYMELSSLRSEDTAVYYCARGGGVFDYWGQGTLVTVSS VL: DIQMTQSPSTLSASVGDRVTITCSASSKISYMHWYQQKPGKAPKLLIYTTSDLASGVPARFSGSGSGTEFTLTISSLQPDDFATYYCHQRSTYPLTFGQGTKVEVK |  | 0.05 | 0.05 |
| Variant C48 (antibody, V domains shown) VH: QVQLVQSGAEVKKPGSSVKVSCKASGYTFTSYRMHWVRQAPGQGLEWMGYIRPKSGYTEYNQKFKDKATITADESTNTAYMELSSLRSEDTAVYYCARGGGVFDYWGQGTLVTVSS VL: DIQMTQSPSTLSASVGDRVTITCSASSKISYMHWYQQKPGKAPKLLIYTTSDLASGVPARFSGSGSGTEFTLTISSLQPDDFATYYCHQRSTYPLTFGQGTKVEVK |  | 0.053 | 0.053 |
| Variant C62 (antibody, V domains shown) VH: QVQLVQSGAEVKKPGSSVKVSCKASGYTFTSYRMHWVRQAPGQGLEWMGYIKPNKGRTEYNQKFKDKATITADESTNTAYMELSSLRSEDTAVYYCARGGGVFDYWGQGTLVTVSS VL: DIQMTQSPSTLSASVGDRVTITCSASSKISYMHWYQQKPGKAPKLLIYTTSDLASGVPARFSGSGSGTEFTLTISSLQPDDFATYYCHQRSTYPLTFGQGTKVEVK |  | 0.1 | 0.1 |
| Variant C61 (antibody, V domains shown) VH: QVQLVQSGAEVKKPGSSVKVSCKASGYTFTSYRMHWVRQAPGQGLEWMGYISPNSGRTEYNQKFKDKATITADESTNTAYMELSSLRSEDTAVYYCARGGGVFDYWGQGTLVTVSS VL: DIQMTQSPSTLSASVGDRVTITCSASSKISYMHWYQQKPGKAPKLLIYTTSDLASGVPARFSGSGSGTEFTLTISSLQPDDFATYYCHQRSTYPLTFGQGTKVEVK |  | 0.055 | 0.055 |
| Variant C45 (antibody, V domains shown) VH: QVQLVQSGAEVKKPGSSVKVSCKASGYTFTSYRMHWVRQAPGQGLEWMGYISPKSGYTEYNQKFKDKATITADESTNTAYMELSSLRSEDTAVYYCARGGGVFDYWGQGTLVTVSS VL: DIQMTQSPSTLSASVGDRVTITCSASSKISYMHWYQQKPGKAPKLLIYTTSDLASGVPARFSGSGSGTEFTLTISSLQPDDFATYYCHQRSTYPLTFGQGTKVEVK |  | 0.055 | 0.055 |

Results, then the binder that gave them:

| Kd (CD25 (recombinant)) [nM] | Kd (cynomolgous monkey CD25 [1]) [nM] | Kd (cynomolgous monkey CD25 [2]) [nM] | Binder |
| --- | --- | --- | --- |
|  | < 0.0023 | < 0.0023 | Variant C60 (antibody, V domains shown) VH: QVQLVQSGAEVKKPGSSVKVSCKASGYTFTSYRMHWVRQAPGQGLEWMGYISPNKGRTEYNQKFKDKATITADESTNTAYMELSSLRSEDTAVYYCARGGGVFDYWGQGTLVTVSS VL: DIQMTQSPSTLSASVGDRVTITCSASSKISYMHWYQQKPGKAPKLLIYTTSDLASGVPARFSGSGSGTEFTLTISSLQPDDFATYYCHQRSTYPLTFGQGTKVEVK |
|  | 0.026 | 0.026 | Variant C50 (antibody, V domains shown) VH: QVQLVQSGAEVKKPGSSVKVSCKASGYTFTSYRMHWVRQAPGQGLEWMGYISPNSGYTEYNQKFKDKATITADESTNTAYMELSSLRSEDTAVYYCARGGGVFDYWGQGTLVTVSS VL: DIQMTQSPSTLSASVGDRVTITCSASSKISYMHWYQQKPGKAPKLLIYTTSDLASGVPARFSGSGSGTEFTLTISSLQPDDFATYYCHQRSTYPLTFGQGTKVEVK |
|  | 0.049 | 0.049 | Variant C55 (antibody, V domains shown) VH: QVQLVQSGAEVKKPGSSVKVSCKASGYTFTSYRMHWVRQAPGQGLEWMGYISPKKGRTEYNQKFKDKATITADESTNTAYMELSSLRSEDTAVYYCARGGGVFDYWGQGTLVTVSS VL: DIQMTQSPSTLSASVGDRVTITCSASSKISYMHWYQQKPGKAPKLLIYTTSDLASGVPARFSGSGSGTEFTLTISSLQPDDFATYYCHQRSTYPLTFGQGTKVEVK |
|  | 0.042 | 0.042 | Variant C44 (antibody, V domains shown) VH: QVQLVQSGAEVKKPGSSVKVSCKASGYTFTSYRMHWVRQAPGQGLEWMGYISPKKGYTEYNQKFKDKATITADESTNTAYMELSSLRSEDTAVYYCARGGGVFDYWGQGTLVTVSS VL: DIQMTQSPSTLSASVGDRVTITCSASSKISYMHWYQQKPGKAPKLLIYTTSDLASGVPARFSGSGSGTEFTLTISSLQPDDFATYYCHQRSTYPLTFGQGTKVEVK |
|  | 0.011 | 0.011 | Variant C46 (antibody, V domains shown) VH: QVQLVQSGAEVKKPGSSVKVSCKASGYTFTSYRMHWVRQAPGQGLEWMGYIKPKSGYTEYNQKFKDKATITADESTNTAYMELSSLRSEDTAVYYCARGGGVFDYWGQGTLVTVSS VL: DIQMTQSPSTLSASVGDRVTITCSASSKISYMHWYQQKPGKAPKLLIYTTSDLASGVPARFSGSGSGTEFTLTISSLQPDDFATYYCHQRSTYPLTFGQGTKVEVK |
|  | 0.0079 | 0.0079 | Variant C49 (antibody, V domains shown) VH: QVQLVQSGAEVKKPGSSVKVSCKASGYTFTSYRMHWVRQAPGQGLEWMGYISPNKGYTEYNQKFKDKATITADESTNTAYMELSSLRSEDTAVYYCARGGGVFDYWGQGTLVTVSS VL: DIQMTQSPSTLSASVGDRVTITCSASSKISYMHWYQQKPGKAPKLLIYTTSDLASGVPARFSGSGSGTEFTLTISSLQPDDFATYYCHQRSTYPLTFGQGTKVEVK |
|  | < 0.0024 | < 0.0024 | Variant C53 (antibody, V domains shown) VH: QVQLVQSGAEVKKPGSSVKVSCKASGYTFTSYRMHWVRQAPGQGLEWMGYISPRKGRTEYNQKFKDKATITADESTNTAYMELSSLRSEDTAVYYCARGGGVFDYWGQGTLVTVSS VL: DIQMTQSPSTLSASVGDRVTITCSASSKISYMHWYQQKPGKAPKLLIYTTSDLASGVPARFSGSGSGTEFTLTISSLQPDDFATYYCHQRSTYPLTFGQGTKVEVK |

— US20200308290A1 (AbbVie / Abbott, published 2020)
